Data as given in patent publication US10487121B2, “D-peptide inhibitors of HIV entry and methods of use” (priority 2016, dated 2019).
Like-named read-outs stand apart in the source and are kept apart here.

Assay: Rodent pharmacokinetics of PIE12-trimer and conjugates (Table 3 protocol)
Type: in vivo, Sprague Dawley rats
Details: rats; for bioavailability: Sprague Dawley; for bioavailability / AUC(0-inf) / C0 / clearance / half-life / Vd / Cmax / Tmax: rat; for AUC(0-inf) / C0 / clearance / half-life / Vd / Cmax / Tmax: in vivo; for clearance: read-out: Cl (obs) (converted); for half-life: read-out: T1/2 (converted); for Vd: read-out: Vz (obs)
Experimental: At each timepoint, plasma was obtained using lithium heparin.
Samples were spiked with an internal standard then precipitated with two volumes of 98% acetonitrile/2% Formic acid. Supernatants were analyzed by LC/MS/MS using an Agilent HPLC system (Waters X-Bridge BEH C18 column) paired to an AB Sciex API 3000 triple-quad mass spectrometer using MRM methods. Lipid conjugates required lower source temperatures (300° C. vs 500° C.) for improved reproducibility.

Row | SMILES | bioavailability (SC, 1.0 mg/kg, plasma, median) | AUC(0-inf) (IV, 1.0 mg/kg, plasma, median) | C0 (IV, 1.0 mg/kg, plasma, median) | clearance (IV, 1.0 mg/kg, plasma, median) | half-life (IV, 1.0 mg/kg, plasma, median) | Vd (IV, 1.0 mg/kg, plasma, median) | AUC(0-inf) (SC, 1.0 mg/kg, plasma, median) | Cmax (SC, 1.0 mg/kg, plasma, median) | Tmax (SC, 1.0 mg/kg, plasma, median) | half-life (SC, 1.0 mg/kg, plasma, median) | other results
1 | CCCCCCCCCCCCCCCCSC1CC(=O)N(CCC(=O)NCCOCCOCCOCCOCCOCCOCCOCCOCCOCCOCCOCCOCCOCCOCCOCCOCCOCCOCCOCCOCCOCCOCCOCCOCCC(=O)NC(COCCC(=O)NCCOCCOCCOCCOCCC(=O)NCCCC[C@@H](NC(=O)CNC(=O)[C@@H](CC(C)C)NC(=O)[C@@H](CCC(=O)O)NC(=O)[C@H]2CSSC[C@@H](NC(=O)[C@H]3CCCN3C(=O)[C@@H](Cc3c[nH]cn3)NC(C)=O)C(=O)N[C@H](CC(=O)O)C(=O)N[C@H](Cc3ccc(O)cc3)C(=O)N3CCC[C@@H]3C(=O)N[C@H](CCC(=O)O)C(=O)N[C@H](Cc3c[nH]c4ccccc34)C(=O)N[C@H](CCC(N)=O)C(=O)N[C@H](Cc3c[nH]c4ccccc34)C(=O)N[C@H](CC(C)C)C(=O)N2)C(N)=O)(COCCC(=O)NCCOCCOCCOCCOCCC(=O)NCCCC[C@@H](NC(=O)CNC(=O)[C@@H](CC(C)C)NC(=O)[C@@H](CCC(=O)O)NC(=O)[C@H]2CSSC[C@@H](NC(=O)[C@H]3CCCN3C(=O)[C@@H](Cc3c[nH]cn3)NC(C)=O)C(=O)N[C@H](CC(=O)O)C(=O)N[C@H](Cc3ccc(O)cc3)C(=O)N3CCC[C@@H]3C(=O)N[C@H](CCC(=O)O)C(=O)N[C@H](Cc3c[nH]c4ccccc34)C(=O)N[C@H](CCC(N)=O)C(=O)N[C@H](Cc3c[nH]c4ccccc34)C(=O)N[C@H](CC(C)C)C(=O)N2)C(N)=O)COCCC(=O)NCCOCCOCCOCCOCCC(=O)NCCCC[C@@H](NC(=O)CNC(=O)[C@@H](CC(C)C)NC(=O)[C@@H](CCC(=O)O)NC(=O)[C@H]2CSSC[C@@H](NC(=O)[C@H]3CCCN3C(=O)[C@@H](Cc3c[nH]cn3)NC(C)=O)C(=O)N[C@H](CC(=O)O)C(=O)N[C@H](Cc3ccc(O)cc3)C(=O)N3CCC[C@@H]3C(=O)N[C@H](CCC(=O)O)C(=O)N[C@H](Cc3c[nH]c4ccccc34)C(=O)N[C@H](CCC(N)=O)C(=O)N[C@H](Cc3c[nH]c4ccccc34)C(=O)N[C@H](CC(C)C)C(=O)N2)C(N)=O)C1=O (stereo partly shown) [C16-PIE12-Trimer] | 38% | 1.16 µM·h | 1880 nM | 1.67 mL/min/kg | 55.8 min | 0.14 L/kg | 0.442 µM·h | 192 nM | 1 h | 70.8 min | 
2 | CCCCCCCCCCCCCCCCCCSC1CC(=O)N(CCC(=O)NCCOCCOCCOCCOCCOCCOCCOCCOCCOCCOCCOCCOCCOCCOCCOCCOCCOCCOCCOCCOCCOCCOCCOCCOCCC(=O)NC(COCCC(=O)NCCOCCOCCOCCOCCC(=O)NCCCC[C@@H](NC(=O)CNC(=O)[C@@H](CC(C)C)NC(=O)[C@@H](CCC(=O)O)NC(=O)[C@H]2CSSC[C@@H](NC(=O)[C@H]3CCCN3C(=O)[C@@H](Cc3c[nH]cn3)NC(C)=O)C(=O)N[C@H](CC(=O)O)C(=O)N[C@H](Cc3ccc(O)cc3)C(=O)N3CCC[C@@H]3C(=O)N[C@H](CCC(=O)O)C(=O)N[C@H](Cc3c[nH]c4ccccc34)C(=O)N[C@H](CCC(N)=O)C(=O)N[C@H](Cc3c[nH]c4ccccc34)C(=O)N[C@H](CC(C)C)C(=O)N2)C(N)=O)(COCCC(=O)NCCOCCOCCOCCOCCC(=O)NCCCC[C@@H](NC(=O)CNC(=O)[C@@H](CC(C)C)NC(=O)[C@@H](CCC(=O)O)NC(=O)[C@H]2CSSC[C@@H](NC(=O)[C@H]3CCCN3C(=O)[C@@H](Cc3c[nH]cn3)NC(C)=O)C(=O)N[C@H](CC(=O)O)C(=O)N[C@H](Cc3ccc(O)cc3)C(=O)N3CCC[C@@H]3C(=O)N[C@H](CCC(=O)O)C(=O)N[C@H](Cc3c[nH]c4ccccc34)C(=O)N[C@H](CCC(N)=O)C(=O)N[C@H](Cc3c[nH]c4ccccc34)C(=O)N[C@H](CC(C)C)C(=O)N2)C(N)=O)COCCC(=O)NCCOCCOCCOCCOCCC(=O)NCCCC[C@@H](NC(=O)CNC(=O)[C@@H](CC(C)C)NC(=O)[C@@H](CCC(=O)O)NC(=O)[C@H]2CSSC[C@@H](NC(=O)[C@H]3CCCN3C(=O)[C@@H](Cc3c[nH]cn3)NC(C)=O)C(=O)N[C@H](CC(=O)O)C(=O)N[C@H](Cc3ccc(O)cc3)C(=O)N3CCC[C@@H]3C(=O)N[C@H](CCC(=O)O)C(=O)N[C@H](Cc3c[nH]c4ccccc34)C(=O)N[C@H](CCC(N)=O)C(=O)N[C@H](Cc3c[nH]c4ccccc34)C(=O)N[C@H](CC(C)C)C(=O)N2)C(N)=O)C1=O (stereo partly shown) [C18-PIE12-trimer] | 93% | 0.766 µM·h | 900 nM | 2.5 mL/min/kg | 63 min | 0.23 L/kg | 0.713 µM·h | 196 nM | 2 h | 83.4 min | 
3 | CCCCCCCCCCCCCCCC(=O)N[C@H](CSC1CC(=O)N(CCC(=O)NCCOCCOCCOCCOCCOCCOCCOCCOCCOCCOCCOCCOCCOCCOCCOCCOCCOCCOCCOCCOCCOCCOCCOCCOCCC(=O)NC(COCCC(=O)NCCOCCOCCOCCOCCC(=O)NCCCC[C@@H](NC(=O)CNC(=O)[C@@H](CC(C)C)NC(=O)[C@@H](CCC(=O)O)NC(=O)[C@H]2CSSC[C@@H](NC(=O)[C@H]3CCCN3C(=O)[C@@H](Cc3c[nH]cn3)NC(C)=O)C(=O)N[C@H](CC(=O)O)C(=O)N[C@H](Cc3ccc(O)cc3)C(=O)N3CCC[C@@H]3C(=O)N[C@H](CCC(=O)O)C(=O)N[C@H](Cc3c[nH]c4ccccc34)C(=O)N[C@H](CCC(N)=O)C(=O)N[C@H](Cc3c[nH]c4ccccc34)C(=O)N[C@H](CC(C)C)C(=O)N2)C(N)=O)(COCCC(=O)NCCOCCOCCOCCOCCC(=O)NCCCC[C@@H](NC(=O)CNC(=O)[C@@H](CC(C)C)NC(=O)[C@@H](CCC(=O)O)NC(=O)[C@H]2CSSC[C@@H](NC(=O)[C@H]3CCCN3C(=O)[C@@H](Cc3c[nH]cn3)NC(C)=O)C(=O)N[C@H](CC(=O)O)C(=O)N[C@H](Cc3ccc(O)cc3)C(=O)N3CCC[C@@H]3C(=O)N[C@H](CCC(=O)O)C(=O)N[C@H](Cc3c[nH]c4ccccc34)C(=O)N[C@H](CCC(N)=O)C(=O)N[C@H](Cc3c[nH]c4ccccc34)C(=O)N[C@H](CC(C)C)C(=O)N2)C(N)=O)COCCC(=O)NCCOCCOCCOCCOCCC(=O)NCCCC[C@@H](NC(=O)CNC(=O)[C@@H](CC(C)C)NC(=O)[C@@H](CCC(=O)O)NC(=O)[C@H]2CSSC[C@@H](NC(=O)[C@H]3CCCN3C(=O)[C@@H](Cc3c[nH]cn3)NC(C)=O)C(=O)N[C@H](CC(=O)O)C(=O)N[C@H](Cc3ccc(O)cc3)C(=O)N3CCC[C@@H]3C(=O)N[C@H](CCC(=O)O)C(=O)N[C@H](Cc3c[nH]c4ccccc34)C(=O)N[C@H](CCC(N)=O)C(=O)N[C@H](Cc3c[nH]c4ccccc34)C(=O)N[C@H](CC(C)C)C(=O)N2)C(N)=O)C1=O)C(=O)O (stereo partly shown) [Palm-PIE12-trimer] |  |  |  |  |  |  |  |  |  |  | AUC(0-inf) (IV, 1.2 mg/kg, plasma, median): 2.24 µM·h; C0 (IV, 1.2 mg/kg, plasma, median): 2240 nM; clearance (IV, 1.2 mg/kg, plasma, median): 1.02 mL/min/kg; half-life (IV, 1.2 mg/kg, plasma, median): 110 min; Vd (IV, 1.2 mg/kg, plasma, median): 0.14 L/kg; AUC(0-inf) (SC, 1.2 mg/kg, plasma, median): 2.31 µM·h; Cmax (SC, 1.2 mg/kg, plasma, median): 585 nM; Tmax (SC, 1.2 mg/kg, plasma, median): 1 h; half-life (SC, 1.2 mg/kg, plasma, median): 134 min; increase of IV half-life vs PIE12-trimer (IV): > 3 fold; reduction of clearance vs PIE12-trimer (IV): ~14 fold; bioavailability upon SC dosing, in words (SC): fully bioavailable; F (SC, 1.2 mg/kg, plasma, median): 103%; extension of SC (apparent) half-life vs PIE12-trimer (SC, terminal phase elimination): ~3 fold
